Results taken from publication PMC5409194 (Journal of Visualized Experiments : JoVE, 2017).

Molecular target: the molecule itself
Assay: […]

B1: C-terminal fragment (residue 323-785) of vaccinia virus protein D5 (domain or fragment)
chain: GNKLFNIAQRILDTNSVLLTERGDYIVWINNSWKFNSEEPLITKLILSIRHQLPKEYSSELLCPRKRKTVEANIRDMLVDSVETDTYPDKLPFKNGVLDLVDGMFYSGDDAKKYTCTVSTGFKFDDTKFVEDSPEMEELMNIINDIQPLTDENKKNRELYEKTLSSCLCGATKGCLTFFFGETATGKSTTKRLLKSAIGDLFVETGQTILTDVLDKGPNPFIANMHLKRSVFCSELPDFACSGSKKIRSDNIKKLTEPCVIGRPCFSNKINNRNHATIIIDTNYKPVFDRIDNALMRRIAVVRFRTHFSQPSGREAAENNDAYDKVKLLDEGLDGKIQNNRYRFAFLYLLVKWYKKYHVPIMKLYPTPEEIPDFAFYLKIGTLLVSSSVKHIPLMTDLSKKGYILYDNVVTLPLTTFQQKISKYFNSRLFGHDIESFINRHKKFANVSDEYLQYIFIEDISSP
  stoichiometry N: 6
